Changes are numbered by the printed parent chain. Names may count otherwise.
T1: human FcγRIIa type H (human, UniProt P12318 36-217)
T1 construct: also called FcgRIIaH; FcγRIIa(H)
T1 sequence: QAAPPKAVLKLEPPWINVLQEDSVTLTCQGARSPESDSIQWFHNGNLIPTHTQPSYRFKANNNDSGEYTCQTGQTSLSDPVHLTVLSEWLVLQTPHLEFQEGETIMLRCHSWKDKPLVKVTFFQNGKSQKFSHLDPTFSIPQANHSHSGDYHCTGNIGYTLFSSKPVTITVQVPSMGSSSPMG

T2: human FcγRIIb (human, UniProt P31994 43-217, limits assumed)
T2 construct: also called FcgRIIb; FcγIIB
T2 sequence: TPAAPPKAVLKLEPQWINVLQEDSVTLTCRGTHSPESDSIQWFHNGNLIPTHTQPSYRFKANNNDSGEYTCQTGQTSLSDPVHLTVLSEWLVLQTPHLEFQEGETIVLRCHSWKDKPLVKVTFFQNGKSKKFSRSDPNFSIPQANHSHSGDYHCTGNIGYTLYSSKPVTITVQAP

T3: human FcγRIIa type R (human, UniProt P12318 36-217)
T3 construct: also called FcγRIIaR; FcγRIIa(R)
T3 chain: T1 sequence with H133R

T4: human FcγRIIa type H (human, UniProt P12318 36-217)
T4 construct: Whole entry named for FcγRIIa allotype H131 (AAH20823.1); also called FcγRIIaH; FcγRIIa(H)
T4 sequence: T1 sequence

T5: human FcγRIIb (human, UniProt P31994 43-217)
T5 construct: also called FcγIIB
T5 sequence: T2 sequence

B1: IL6R-BP214/IL6R-L (antibody)
heavy: QVQLQESGPGLVKPSETLSLTCAVSGHSISHDHAWSWVRQPPGEGLEWIGFISYSGITNYNPSLQGRVTISRDNSKNTLYLQMNSLRAEDTAVYYCARSLARTTAMDYWGEGTLVTVSSASTKGPSVFPLAPSSKSTSGGTAALGCLVKDYFPEPVTVSWNSGALTSGVHTFPAVLQSSGLYSLSSVVTVPSSSLGTQTYICNVNHKPSNTKVDKKVEPKSCDKTHTCPPCPAPDYLGDDSVFLFPPKPKDTLMISRTPEVTCVVVDVSHEDPEVKFNWYVDGVEVHNAKTKPREEQDNSTYRVVSVLTVLHQDWLNGKEYKCKVSNDALPKPIEKTISKAKGQPREPQVYTLPPSRDELTKNQVSLTCLVKGFYPSDIAVEWESNGQPENNYKTTPPVLDSDGSFFLYSKLTVDKSRWQQGNVFSCSVMHEALHNHYTQESLSLSP
light: DIQMTQSPSSLSASVGDRVTITCRASQDISSYLNWYQQKPGKAPKLLIYYTSRLHSGVPSRFSGSGSGTDFTFTISSLQPEDIATYYCQQGNTLPYTFGQGTKVEIK
notes: copies: 2 + 2
B2: IL6R-BP210/IL6R-L (antibody, human IgG1)
heavy: B1 heavy with D235E, Y236L, H270D, P273G, D298Y, D328K, K332R
light: B1 light
notes: The common L chain is IL6R-L; copies: 2 + 2
B3: IL6R-B3/IL6R-L (antibody, human IgG1)
heavy: not shown
light: B1 light
notes: IL6R-G1d with K439E (EU numbering); copies: 2 + 2
B4: IL6R-BP911/IL6R-L (antibody, human IgG1)
heavy: B1 heavy with D235E, Y236L, D239G, D298Y, D328K
light: B1 light
notes: copies: 2 + 2
B5: IL6R-BP100/IL6R-L (antibody, human IgG1)
heavy: B1 heavy with D235E, Y236L, D239G, S269A, D298Y, D328K, K332A
light: B1 light
notes: copies: 2 + 2
B6: IL6R-2B172/IL6R-L (antibody, human IgG1)
heavy: B1 heavy with D235E, Y236L, D239G, D298Y, V325M, D328K, K332A
light: B1 light
notes: copies: 2 + 2
B7: IL6R-2B171/IL6R-L (antibody, human IgG1)
heavy: B1 heavy with D235E, Y236L, D239G, D298Y, V325L, D328K, K332A
light: B1 light
notes: copies: 2 + 2
B8: IL6R-2B169/IL6R-L (antibody, human IgG1)
heavy: B1 heavy with D235E, Y236L, D239G, D298Y, V325I, D328K, K332A
light: B1 light
notes: copies: 2 + 2
B9: IL6R-BP107/IL6R-L (antibody, human IgG1)
heavy: B1 heavy with D235E, Y236L, D239G, H270E, D298Y, D328K, K332A
light: B1 light
notes: copies: 2 + 2
B10: IL6R-BP126/IL6R-L (antibody, human IgG1)
heavy: B1 heavy with D235E, Y236L, D239G, D298Y, D328L, K332A
light: B1 light
notes: copies: 2 + 2

Target: T6, human FcγRIa (human, UniProt P12314 16-292, limits assumed)
T6 construct: also called FcgRIa; CD64
Assay: SPR (Biacore); binding amount divided by that of control IL6R-BF648/IL6R-L, x100
T6 sequence (P12314 16-292 limits assumed): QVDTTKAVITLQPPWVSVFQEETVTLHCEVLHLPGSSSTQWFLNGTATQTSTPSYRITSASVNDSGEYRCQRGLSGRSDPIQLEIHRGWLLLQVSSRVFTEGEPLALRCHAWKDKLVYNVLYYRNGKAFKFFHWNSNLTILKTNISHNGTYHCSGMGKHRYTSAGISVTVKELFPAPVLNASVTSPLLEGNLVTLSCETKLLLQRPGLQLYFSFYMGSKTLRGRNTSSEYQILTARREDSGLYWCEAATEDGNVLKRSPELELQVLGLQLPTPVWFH
Procedure: (§1) According to the following method, relative binding activities were calculated for the results of analyzing interactions with the respective FcγRs.

Row | Binder | relative binding activity
1 | B1 | 36 % of IL6R-BF648/IL6R-L
2 | B2 | 57 % of IL6R-BF648/IL6R-L

Target: T1, human FcγRIIa type H
Assay: as above
Procedure: as §1

Row | Binder | relative binding activity
3 | B1 | 285 % of IL6R-BF648/IL6R-L
4 | B2 | 279 % of IL6R-BF648/IL6R-L

Target: T2, human FcγRIIb
Assay: as above
Procedure: as §1

Row | Binder | relative binding activity
5 | B1 | 174 % of IL6R-BF648/IL6R-L
6 | B2 | 187 % of IL6R-BF648/IL6R-L

Target: T7, human FcγRIa (human, UniProt P12314 16-292, limits assumed)
T7 construct: also called CD64
Assay: SPR (Biacore), FcγR over captured antibody; amount bound relative to IL6R-BF648/IL6R-L x100
T7 sequence (P12314 16-292 limits assumed): as above

Row | Binder | relative binding
7 | B3 | 145 relative value (IL6R-BF648/IL6R-L = 100)
8 | B4 | 52 relative value (IL6R-BF648/IL6R-L = 100)
9 | B5 | 121 relative value (IL6R-BF648/IL6R-L = 100)
10 | B6 | 140 relative value (IL6R-BF648/IL6R-L = 100)
11 | B7 | 116 relative value (IL6R-BF648/IL6R-L = 100)
12 | B8 | 73 relative value (IL6R-BF648/IL6R-L = 100)
13 | B9 | 123 relative value (IL6R-BF648/IL6R-L = 100)
14 | B10 | 113 relative value (IL6R-BF648/IL6R-L = 100)

Target: T3, human FcγRIIa type R
Assay: as above

Row | Binder | relative binding
15 | B3 | 625 relative value (IL6R-BF648/IL6R-L = 100)
16 | B4 | 101 relative value (IL6R-BF648/IL6R-L = 100)
17 | B5 | 197 relative value (IL6R-BF648/IL6R-L = 100)
18 | B6 | 244 relative value (IL6R-BF648/IL6R-L = 100)
19 | B7 | 117 relative value (IL6R-BF648/IL6R-L = 100)
20 | B9 | 147 relative value (IL6R-BF648/IL6R-L = 100)
21 | B10 | 167 relative value (IL6R-BF648/IL6R-L = 100)

Target: T4, human FcγRIIa type H
Assay: as above

Row | Binder | relative binding
22 | B3 | 1600 relative value (IL6R-BF648/IL6R-L = 100)
23 | B4 | 108 relative value (IL6R-BF648/IL6R-L = 100)
24 | B5 | 128 relative value (IL6R-BF648/IL6R-L = 100)
25 | B6 | 179 relative value (IL6R-BF648/IL6R-L = 100)
26 | B7 | 115 relative value (IL6R-BF648/IL6R-L = 100)
27 | B8 | 83 relative value (IL6R-BF648/IL6R-L = 100)
28 | B10 | 132 relative value (IL6R-BF648/IL6R-L = 100)

Target: T5, human FcγRIIb
Assay: as above

Row | Binder | relative binding
29 | B3 | 58 relative value (IL6R-BF648/IL6R-L = 100)
30 | B4 | 119 relative value (IL6R-BF648/IL6R-L = 100)
31 | B5 | 110 relative value (IL6R-BF648/IL6R-L = 100)
32 | B6 | 132 relative value (IL6R-BF648/IL6R-L = 100)
33 | B7 | 113 relative value (IL6R-BF648/IL6R-L = 100)
34 | B8 | 104 relative value (IL6R-BF648/IL6R-L = 100)
35 | B9 | 118 relative value (IL6R-BF648/IL6R-L = 100)
36 | B10 | 103 relative value (IL6R-BF648/IL6R-L = 100)

Target: T8, human FcγRIIIa type V (human, UniProt P08637 17-208, limits assumed)
T8 construct: also called FcγRIIIaV; FcγRIIIa(V)
T8 sequence (P08637 other isoform, or with tags, fused parts or gaps limits assumed): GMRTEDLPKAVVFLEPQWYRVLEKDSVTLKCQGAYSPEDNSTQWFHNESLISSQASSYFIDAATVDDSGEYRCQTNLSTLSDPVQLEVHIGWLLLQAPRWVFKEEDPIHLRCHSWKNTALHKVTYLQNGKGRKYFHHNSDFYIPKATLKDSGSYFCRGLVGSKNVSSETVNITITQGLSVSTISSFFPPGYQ
Assay: as above

Row | Binder | relative binding
37 | B3 | 3260 relative value (IL6R-BF648/IL6R-L = 100)
38 | B5 | 138 relative value (IL6R-BF648/IL6R-L = 100)
39 | B6 | 144 relative value (IL6R-BF648/IL6R-L = 100)
40 | B7 | 122 relative value (IL6R-BF648/IL6R-L = 100)
41 | B8 | 94 relative value (IL6R-BF648/IL6R-L = 100)
42 | B9 | 129 relative value (IL6R-BF648/IL6R-L = 100)
